This passage reports Kd and Ki results from article PMC4141193 (FEBS Open Bio, 2014).

What is called Kd is the free concentration of one partner at which half of the binding sites on the other are occupied at equilibrium, for simple one-to-one binding. As usually defined, the Ki is the equilibrium dissociation constant of an inhibitor or competing ligand from its target. A low value points to higher affinity.

The target in experiment [1] is ARPF-K(5-Fam)-NH2-peptide. Briefly: fluorescence polarisation. For orientation: Polarisation of emitted light reports the rotation of a fluorescent probe.
Experiment [2] has as its target X-linked inhibitor of apoptosis protein (XIAP) (Homo sapiens, UniProt P98170). Briefly: competitive fluorescence polarization with ARPF-FAM probe. The format is binding.

X-linked inhibitor of apoptosis protein (XIAP), sequence (P98170 238-359): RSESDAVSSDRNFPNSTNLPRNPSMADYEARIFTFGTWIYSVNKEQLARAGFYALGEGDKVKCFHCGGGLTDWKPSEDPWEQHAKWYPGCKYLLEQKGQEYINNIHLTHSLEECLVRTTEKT

As to “recombinant XIAP-BIR3 domain protein (domain or fragment)”, in experiment [1], the Kd was found to be 0.145 µM.
With `CCCCCCCCCCCC1=C(O)C(=O)C=C(O)C1=O` [embelin], affinity in experiment [2] was put at a Ki of 22.3 µM.
